Assay results taken from patent US20240084023A1 (NGM BIOPHARMACEUTICALS, published 2024).
Residue numbers refer to the chain shown, from its start.

Columns and labels:
[1] = target: T1, GCGR extracellular domain alanine mutant L85A (human, UniProt P47871 26-136, limits assumed); assay: flow cytometry on transfected 293XP cells
T1 construct: expressed in 293XP cells
T1 chain: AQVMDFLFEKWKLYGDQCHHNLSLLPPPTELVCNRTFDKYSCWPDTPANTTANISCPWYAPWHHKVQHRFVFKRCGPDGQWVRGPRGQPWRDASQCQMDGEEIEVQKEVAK
Protocol: (§1) To assist in gathering information on the GCGR epitope that the 6B5 binning group bound to, “alanine scanning mutagenesis” was undertaken. These alanine scanning mutagenesis platform is a technique used for mapping both linear and conformational antigen epitopes by evaluating the effects of point mutations across a target protein. Single residues in a target protein are replaced by alanine one at a time to construct a mutant library. Each variant is assayed for its ability to bind to an antibody of interest. […] Amino acids across the extracellular domain of GCGR were mutated to alanine and the anti-GCGR antibody Hz6B5 was tested for binding to the alanine mutants.
(§2) The wild-type GCGR extracellular domain and the alanine mutants were each transfected into 293XP cells and incubated for 24 hours. Antibody Hz6B5 was incubated with the transfected cells for 30 minutes at 4° C. After washing with PBS/1% BSA/0.1% azide, the cells were incubated with a labeled anti-mouse Fc antibody (Jackson Immunoresearch) for 30 minutes at 4° C. After washing with PBS/1% BSA/0.1% azide, the cells were analyzed using a flow cytometer BD (FACSCalibur instrument) and cytometric analytical software (FlowJo). A serum sample from a mouse immunized with human GCGR was used as positive control to confirm expression of the alanine mutants.

[2] = target: T2, GCGR extracellular domain alanine mutant K98A (human, UniProt P47871 26-136, limits assumed); assay: flow cytometry on transfected 293XP cells
T2 construct: expressed in 293XP cells
T2 chain: T1 chain with A60L, K73A
Protocol: as §1, §2

% positive cells [1]: 11.7% | % positive cells [2]: 82.5%
B1: anti-GCGR antibody Hz6B5 (antibody, V domains shown)
VH: QVQLVQSGAEVKKPGSSVKVSCKASGFTFTNHWLGWVRQAPGQGLEWIGDIYPGGYYINYNEKFKGRVTITADESTSTAYMELSSLRSEDTAVYYCARHTNYGSDYWGQGTTVTVSS
VL: DVVMTQSPLSLPVTLGQPASISCRSSQSIVDSYGNTFLEWYQQRPGQSPRLLIYKVSNRLSGVPDRFSGSGSGTDFTLKISRVEAEDVGVYYCFQGSHVPWTFGQGTKLEIK
notes: Humanized 6B5
